Measured values published in patent US20150344570A1 (published 2015).

T1: FcγRIIb extracellular domain with C-terminal His tag (human, UniProt P31994 43-217)
T1 construct: extracellular domain; Soluble receptor expressed in FreeStyle293 cells, used as analyte in Biacore; also called FcgRIIb; 2b
T1 sequence (looked up): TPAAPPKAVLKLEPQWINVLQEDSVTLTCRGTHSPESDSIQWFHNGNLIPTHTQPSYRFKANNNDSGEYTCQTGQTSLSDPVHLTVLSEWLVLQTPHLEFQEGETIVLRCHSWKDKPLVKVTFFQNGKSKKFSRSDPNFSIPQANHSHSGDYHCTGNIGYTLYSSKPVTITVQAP


What was measured:
[1] = target: T2, FcγRIIIa extracellular domain with C-terminal His tag (human, UniProt P08637 17-208); experiment: SPR (Biacore), antibody captured on antigen peptide chip, FcγR as analyte; GpH7-A5/GpH7-B3/GpL16-k0 = 100
T2 construct: extracellular domain; also called FcgRIIIa; 3a
Procedure: (§1) The heterodimerized antibodies He Abs in which one of the H chains was introduced with an alteration were assayed for their binding activities to each activating FcγR and inhibitory FcγR according to the method described in Example 4. […] The activating FcγRs in FIGS. 26, 27, 28, and 29 are FcγRIa, FcγRIIa (R), FcγRIIa (H), and FcγRIIIa, respectively.
(§2) Analysis of interaction between objective antibody and the FcγR was carried out using Biacore T100 (GE Healthcare). HBS-EP+ (GE Healthcare) was used as the running buffer, and the measurement temperature was set to 25° C. Chips produced by immobilizing the antigen peptide by the amine coupling method to a Series S Sencor Chip CM5 (GE Healthcare), or alternatively, chips produced by allowing preliminarily biotinylated antigen peptides to interact with and immobilize onto a Series S Sensor Chip SA (certified) (GE Healthcare) were used. Antibodies of interest were captured onto an antigen peptide-immobilized chip, and allowed to interact to each FcγR diluted with running buffer. To regenerate and repeatedly use the chip, the antibodies captured on the chip were washed off by reacting 10 mM glycine-HCl, pH 1.5.

[2] = target: T1, FcγRIIb extracellular domain with …; experiment: as above
Procedure: as §1, §2

[3] = target: T2, FcγRIIIa extracellular domain with …; experiment: SPR (Biacore); He/Con_3a divided by He/Con_2b (FcγRIIIa against FcγRIIb)
Procedure: as §1, §2

T2 sequence (P08637 17-208): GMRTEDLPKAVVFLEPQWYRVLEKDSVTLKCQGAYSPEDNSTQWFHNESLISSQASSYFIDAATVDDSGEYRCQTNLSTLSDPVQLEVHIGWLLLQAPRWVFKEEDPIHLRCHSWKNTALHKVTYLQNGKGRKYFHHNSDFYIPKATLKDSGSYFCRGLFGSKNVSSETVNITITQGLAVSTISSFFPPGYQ

| Binder | He/Con_3a (relative binding activity) [1] | He/Con_2b (relative binding activity) [2] | He_3a/2b (IIIa/IIb) [3] |
| --- | --- | --- | --- |
| GpH7-A5/GpH7-B3 variant I332_09D/GpL16-k0 (antibody, human IgG1, kappa, Heterodimerized anti-glypican-3 IgG1; mutation in the GpH7-B3 chain only; also called He Ab) heavy 1: not shown heavy 2: not shown light: DIVMTQSPLSLPVTPGEPASISCQASESLVHSNRNTYLHWYLQKPGQSPQLLIYKVSNRFSGVPDRFSGSGSGTDFTLKISRVEAEDVGVYYCSQNTHVPPTFGQGTKVEIERTVAAPSVFIFPPSDEQLKSGTASVVCLLNNFYPREAKVQWKVDNALQSGNSQESVTEQDSKDSTYSLSSTLTLSKADYEKHKVYACEVTHQGLSSPVTKSFNRGEC | 207 % of control | 147 % of control | 1.41 ratio |
| GpH7-A5/GpH7-B3 variant K334_02A/GpL16-k0 (antibody, human IgG1, kappa, Heterodimerized anti-glypican-3 IgG1; mutation in the GpH7-B3 chain only; also called He Ab) heavy 1: not shown heavy 2: not shown light: DIVMTQSPLSLPVTPGEPASISCQASESLVHSNRNTYLHWYLQKPGQSPQLLIYKVSNRFSGVPDRFSGSGSGTDFTLKISRVEAEDVGVYYCSQNTHVPPTFGQGTKVEIERTVAAPSVFIFPPSDEQLKSGTASVVCLLNNFYPREAKVQWKVDNALQSGNSQESVTEQDSKDSTYSLSSTLTLSKADYEKHKVYACEVTHQGLSSPVTKSFNRGEC | 147 % of control | 108 % of control | 1.37 ratio |
| GpH7-A5/GpH7-B3 variant K334_08L/GpL16-k0 (antibody, human IgG1, kappa, Heterodimerized anti-glypican-3 IgG1; mutation in the GpH7-B3 chain only; also called He Ab) heavy 1: not shown heavy 2: not shown light: DIVMTQSPLSLPVTPGEPASISCQASESLVHSNRNTYLHWYLQKPGQSPQLLIYKVSNRFSGVPDRFSGSGSGTDFTLKISRVEAEDVGVYYCSQNTHVPPTFGQGTKVEIERTVAAPSVFIFPPSDEQLKSGTASVVCLLNNFYPREAKVQWKVDNALQSGNSQESVTEQDSKDSTYSLSSTLTLSKADYEKHKVYACEVTHQGLSSPVTKSFNRGEC | 143 % of control | 106 % of control | 1.35 ratio |
| GpH7-A5/GpH7-B3 variant P329_12R/GpL16-k0 (antibody, human IgG1, kappa, Heterodimerized anti-glypican-3 IgG1; mutation in the GpH7-B3 chain only; also called He Ab) heavy 1: not shown heavy 2: not shown light: DIVMTQSPLSLPVTPGEPASISCQASESLVHSNRNTYLHWYLQKPGQSPQLLIYKVSNRFSGVPDRFSGSGSGTDFTLKISRVEAEDVGVYYCSQNTHVPPTFGQGTKVEIERTVAAPSVFIFPPSDEQLKSGTASVVCLLNNFYPREAKVQWKVDNALQSGNSQESVTEQDSKDSTYSLSSTLTLSKADYEKHKVYACEVTHQGLSSPVTKSFNRGEC | 26.7 % of control | 17.6 % of control | 1.52 ratio |
| GpH7-A5/GpH7-B3 variant K334_09D/GpL16-k0 (antibody, human IgG1, kappa, Heterodimerized anti-glypican-3 IgG1; mutation in the GpH7-B3 chain only; also called He Ab) heavy 1: not shown heavy 2: not shown light: DIVMTQSPLSLPVTPGEPASISCQASESLVHSNRNTYLHWYLQKPGQSPQLLIYKVSNRFSGVPDRFSGSGSGTDFTLKISRVEAEDVGVYYCSQNTHVPPTFGQGTKVEIERTVAAPSVFIFPPSDEQLKSGTASVVCLLNNFYPREAKVQWKVDNALQSGNSQESVTEQDSKDSTYSLSSTLTLSKADYEKHKVYACEVTHQGLSSPVTKSFNRGEC | 160 % of control | 94.8 % of control | 1.69 ratio |
| GpH7-A5/GpH7-B3 variant I332_10E/GpL16-k0 (antibody, human IgG1, kappa, Heterodimerized anti-glypican-3 IgG1; mutation in the GpH7-B3 chain only; also called He Ab) heavy 1: not shown heavy 2: not shown light: DIVMTQSPLSLPVTPGEPASISCQASESLVHSNRNTYLHWYLQKPGQSPQLLIYKVSNRFSGVPDRFSGSGSGTDFTLKISRVEAEDVGVYYCSQNTHVPPTFGQGTKVEIERTVAAPSVFIFPPSDEQLKSGTASVVCLLNNFYPREAKVQWKVDNALQSGNSQESVTEQDSKDSTYSLSSTLTLSKADYEKHKVYACEVTHQGLSSPVTKSFNRGEC | 233 % of control | 142 % of control | 1.63 ratio |
| GpH7-A5/GpH7-B3 variant K334_04F/GpL16-k0 (antibody, human IgG1, kappa, Heterodimerized anti-glypican-3 IgG1; mutation in the GpH7-B3 chain only; also called He Ab) heavy 1: not shown heavy 2: not shown light: DIVMTQSPLSLPVTPGEPASISCQASESLVHSNRNTYLHWYLQKPGQSPQLLIYKVSNRFSGVPDRFSGSGSGTDFTLKISRVEAEDVGVYYCSQNTHVPPTFGQGTKVEIERTVAAPSVFIFPPSDEQLKSGTASVVCLLNNFYPREAKVQWKVDNALQSGNSQESVTEQDSKDSTYSLSSTLTLSKADYEKHKVYACEVTHQGLSSPVTKSFNRGEC | 148 % of control | 111 % of control | 1.33 ratio |
| GpH7-A5/GpH7-B3 variant K334_07I/GpL16-k0 (antibody, human IgG1, kappa, Heterodimerized anti-glypican-3 IgG1; mutation in the GpH7-B3 chain only; also called He Ab) heavy 1: not shown heavy 2: not shown light: DIVMTQSPLSLPVTPGEPASISCQASESLVHSNRNTYLHWYLQKPGQSPQLLIYKVSNRFSGVPDRFSGSGSGTDFTLKISRVEAEDVGVYYCSQNTHVPPTFGQGTKVEIERTVAAPSVFIFPPSDEQLKSGTASVVCLLNNFYPREAKVQWKVDNALQSGNSQESVTEQDSKDSTYSLSSTLTLSKADYEKHKVYACEVTHQGLSSPVTKSFNRGEC | 151 % of control | 119 % of control | 1.27 ratio |
| GpH7-A5/GpH7-B3 variant K334_01G/GpL16-k0 (antibody, human IgG1, kappa, Heterodimerized anti-glypican-3 IgG1; mutation in the GpH7-B3 chain only; also called He Ab) heavy 1: not shown heavy 2: not shown light: DIVMTQSPLSLPVTPGEPASISCQASESLVHSNRNTYLHWYLQKPGQSPQLLIYKVSNRFSGVPDRFSGSGSGTDFTLKISRVEAEDVGVYYCSQNTHVPPTFGQGTKVEIERTVAAPSVFIFPPSDEQLKSGTASVVCLLNNFYPREAKVQWKVDNALQSGNSQESVTEQDSKDSTYSLSSTLTLSKADYEKHKVYACEVTHQGLSSPVTKSFNRGEC | 121 % of control | 92.5 % of control | 1.31 ratio |
| GpH7-A5/GpH7-B3 variant K334_05P/GpL16-k0 (antibody, human IgG1, kappa, Heterodimerized anti-glypican-3 IgG1; mutation in the GpH7-B3 chain only; also called He Ab) heavy 1: not shown heavy 2: not shown light: DIVMTQSPLSLPVTPGEPASISCQASESLVHSNRNTYLHWYLQKPGQSPQLLIYKVSNRFSGVPDRFSGSGSGTDFTLKISRVEAEDVGVYYCSQNTHVPPTFGQGTKVEIERTVAAPSVFIFPPSDEQLKSGTASVVCLLNNFYPREAKVQWKVDNALQSGNSQESVTEQDSKDSTYSLSSTLTLSKADYEKHKVYACEVTHQGLSSPVTKSFNRGEC | 134 % of control | 105 % of control | 1.27 ratio |
| GpH7-A5/GpH7-B3 variant K334_06M/GpL16-k0 (antibody, human IgG1, kappa, Heterodimerized anti-glypican-3 IgG1; mutation in the GpH7-B3 chain only; also called He Ab) heavy 1: not shown heavy 2: not shown light: DIVMTQSPLSLPVTPGEPASISCQASESLVHSNRNTYLHWYLQKPGQSPQLLIYKVSNRFSGVPDRFSGSGSGTDFTLKISRVEAEDVGVYYCSQNTHVPPTFGQGTKVEIERTVAAPSVFIFPPSDEQLKSGTASVVCLLNNFYPREAKVQWKVDNALQSGNSQESVTEQDSKDSTYSLSSTLTLSKADYEKHKVYACEVTHQGLSSPVTKSFNRGEC | 144 % of control | 109 % of control | 1.33 ratio |
| GpH7-A5/GpH7-B3 variant P329_02A/GpL16-k0 (antibody, human IgG1, kappa, Heterodimerized anti-glypican-3 IgG1; mutation in the GpH7-B3 chain only; also called He Ab) heavy 1: not shown heavy 2: not shown light: DIVMTQSPLSLPVTPGEPASISCQASESLVHSNRNTYLHWYLQKPGQSPQLLIYKVSNRFSGVPDRFSGSGSGTDFTLKISRVEAEDVGVYYCSQNTHVPPTFGQGTKVEIERTVAAPSVFIFPPSDEQLKSGTASVVCLLNNFYPREAKVQWKVDNALQSGNSQESVTEQDSKDSTYSLSSTLTLSKADYEKHKVYACEVTHQGLSSPVTKSFNRGEC | 56.4 % of control | 40.5 % of control | 1.39 ratio |
| GpH7-A5/GpH7-B3 variant P329_11K/GpL16-k0 (antibody, human IgG1, kappa, Heterodimerized anti-glypican-3 IgG1; mutation in the GpH7-B3 chain only; also called He Ab) heavy 1: not shown heavy 2: not shown light: DIVMTQSPLSLPVTPGEPASISCQASESLVHSNRNTYLHWYLQKPGQSPQLLIYKVSNRFSGVPDRFSGSGSGTDFTLKISRVEAEDVGVYYCSQNTHVPPTFGQGTKVEIERTVAAPSVFIFPPSDEQLKSGTASVVCLLNNFYPREAKVQWKVDNALQSGNSQESVTEQDSKDSTYSLSSTLTLSKADYEKHKVYACEVTHQGLSSPVTKSFNRGEC | 29.6 % of control | 16.9 % of control | 1.76 ratio |
| GpH7-A5/GpH7-B3 variant I332_12R/GpL16-k0 (antibody, human IgG1, kappa, Heterodimerized anti-glypican-3 IgG1; mutation in the GpH7-B3 chain only; also called He Ab) heavy 1: not shown heavy 2: not shown light: DIVMTQSPLSLPVTPGEPASISCQASESLVHSNRNTYLHWYLQKPGQSPQLLIYKVSNRFSGVPDRFSGSGSGTDFTLKISRVEAEDVGVYYCSQNTHVPPTFGQGTKVEIERTVAAPSVFIFPPSDEQLKSGTASVVCLLNNFYPREAKVQWKVDNALQSGNSQESVTEQDSKDSTYSLSSTLTLSKADYEKHKVYACEVTHQGLSSPVTKSFNRGEC | 75.9 % of control | 48.9 % of control | 1.55 ratio |
| GpH7-A5/GpH7-B3 variant Q295_13S/GpL16-k0 (antibody, human IgG1, kappa, Heterodimerized anti-glypican-3 IgG1; mutation in the GpH7-B3 chain only; also called He Ab) heavy 1: not shown heavy 2: not shown light: DIVMTQSPLSLPVTPGEPASISCQASESLVHSNRNTYLHWYLQKPGQSPQLLIYKVSNRFSGVPDRFSGSGSGTDFTLKISRVEAEDVGVYYCSQNTHVPPTFGQGTKVEIERTVAAPSVFIFPPSDEQLKSGTASVVCLLNNFYPREAKVQWKVDNALQSGNSQESVTEQDSKDSTYSLSSTLTLSKADYEKHKVYACEVTHQGLSSPVTKSFNRGEC | 86.1 % of control | 56.9 % of control | 1.51 ratio |
